# Laboratory results as given in publication PMC5666004.
# Legend:
# Htt-N20^S13P-GB1 = Htt-N20^S13P-GB1 (UniProt P42858); assay: NMR titration; 15N-labelled Htt-N20-GB1 or mutants (50 μM) titrated with HSP90 constructs or HSP70; [1H,15N] HSQC peak intensities; 20 mM phosphate, 50 mM NaCl, pH 6.5, 25 °C
# [1] = target: Htt-N20-GB1 (N-terminal 20-residue fragment of Htt with GB1 fused at the C terminus) (UniProt P42858); assay: as above
# [2] = target: HSP90-MC (residues 236–696) (UniProt P07900); assay: SEC; Superdex-200 Increase 10/300 GL, ~100 μM protein loaded; 20 mM phosphate, 50 mM NaCl, pH 6.5; apparent molecular weights from calibration with standard proteins
average relative peak intensity of the Htt-N20 moiety at a 1:1 ratio (Htt-N20^S13P-GB1),average relative peak intensity of the Htt-N20 moiety at a 1:1 ratio [1],stoichiometry N [2],Substance
0.86,0.59,,HSP90(1–696) (from UniProt P07900 1-696) (domain or fragment)
,,2,HSP90-MC (residues 236–696) (from UniProt P07900 236-696) (domain or fragment)
